Measured values as given in IntAct's records for PubMed 15141091.

B1: Homeobox protein SIX1 (Mus musculus), Q62231 (parent)
chain: MSMLPSFGFTQEQVACVCEVLQQGGNLERLGRFLWSLPACDHLHKNESVLKAKAVVAFHRGNFRELYKILESHQFSPHNHPKLQQLWLKAHYVEAEKLRGRPLGAVGKYRVRRKFPLPRTIWDGEETSYCFKEKSRGVLREWYAHNPYPSPREKRELAEATGLTTTQVSNWFKNRRQRDRAAEAKERENTENNNSSSNKQNQLSPLEGGKPLMSSSEEEFSPPQSPDQNSVLLLQSNMGHARSSNYSLPGLTASQPSHGLQAHQHQLQDSLLGPLTSSLVDLGS
partner: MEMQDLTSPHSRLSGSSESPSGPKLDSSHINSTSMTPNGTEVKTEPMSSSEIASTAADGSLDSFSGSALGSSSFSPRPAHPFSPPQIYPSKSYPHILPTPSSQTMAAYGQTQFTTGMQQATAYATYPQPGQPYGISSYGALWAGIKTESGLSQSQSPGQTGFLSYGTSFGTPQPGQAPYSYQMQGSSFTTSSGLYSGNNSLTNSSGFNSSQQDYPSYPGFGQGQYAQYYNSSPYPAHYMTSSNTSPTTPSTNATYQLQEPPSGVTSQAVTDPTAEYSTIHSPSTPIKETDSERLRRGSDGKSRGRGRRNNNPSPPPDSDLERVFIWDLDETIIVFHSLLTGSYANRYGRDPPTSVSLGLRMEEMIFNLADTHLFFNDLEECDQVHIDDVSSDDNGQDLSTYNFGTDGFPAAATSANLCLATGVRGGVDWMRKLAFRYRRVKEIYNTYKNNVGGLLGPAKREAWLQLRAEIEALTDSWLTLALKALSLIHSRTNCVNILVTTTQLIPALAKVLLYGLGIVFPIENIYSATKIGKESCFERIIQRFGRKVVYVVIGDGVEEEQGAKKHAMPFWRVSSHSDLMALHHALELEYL

Variants of: B1
Conditions: with eya1_mouse Eya1, P97767

| effect of a mutation on the interaction | Variant |
| --- | --- |
| decreasing interaction | MSMLPSFGFTQEQVACVCEVLQQGGNLERLGRFLWSLPACDHLHKNESVLKAKAVVAFHRGNFRELYKILESHQFSPHNHPKLQQLWLKAHYVEAEKLRGRPLGAVGKYRVRRKFPLPRTIWDGEETSCCFKEKSRGVLREWYAHNPYPSPREKRELAEATGLTTTQVSNWFKNRRQRDRAAEAKERENTENNNSSSNKQNQLSPLEGGKPLMSSSEEEFSPPQSPDQNSVLLLQSNMGHARSSNYSLPGLTASQPSHGLQAHQHQLQDSLLGPLTSSLVDLGS [Y129C] |
| decreasing interaction | MSMLPSFGFTQEQVACVCEVLQQGGNLERLGRFLWSLPACDHLHKNESVLKAKAVVAFHRGNFRELYKILESHQFSPHNHPKLQQLWLKAHYVEAEKLRGRPLGAVGKYWVRRKFPLPRTIWDGEETSYCFKEKSRGVLREWYAHNPYPSPREKRELAEATGLTTTQVSNWFKNRRQRDRAAEAKERENTENNNSSSNKQNQLSPLEGGKPLMSSSEEEFSPPQSPDQNSVLLLQSNMGHARSSNYSLPGLTASQPSHGLQAHQHQLQDSLLGPLTSSLVDLGS [R110W] |
